Here are results for 2 molecules from paper PMC3664799 (Nucleic Acids Research, 2013).

Sequences and labels used below:
B1: DnaC6-DnaI6 complex (co-purified DnaC helicase and DnaI loader) (complex, Bacillus subtilis)
chain 1: MTDLLNDRLPPQNIEAEQAVLGAIFLQPSALTLASEVLIPDDFYRMSHQKIYNAMLVLGDRGEPVDLVTVTSELANTDLLEEVGGISYLTDIANSVPTAANIEYYAKIVEEKSILRRLIRTATTIAQDGYTREDEVEDLLSEAEKTIMEVAQRKNTSAFQNIKDVLVQTYDNIEQLHNRKGDITGIPTGFTELDRMTAGFQRNDLIIVAARPSVGKTAFALNIAQNVATKTDESVAIFSLEMGAEQLVMRMLCAEGNINAQNLRTGNLTEEDWGKLTMAMGSLSNSGIYIDDTPGIRVSEIRAKCRRLKQESGLGMILIDYLQLIQGSGRSKDNRQQEVSEISRELKSIARELQVPVIALSQLSRGVEQRQDKRPMMSDIRESGSIEQDADIVAFLYRDDYYDKETENKNIIEIIIAKQRNGPVGTVSLAFVKEYNKFVNLERRFDDAGVPPGA
chain 2: MEPIGRSLQGVTGRPDFQKRLEQMKEKVMKDQDVQAFLKENEEVIDQKMIEKSLNKLYEYIEQSKNCSYCSEDENCNNLLEGYHPKLVVNGRSIDIEYYECPVKRKLDQQKKQQSLMKSMYIQQDLLGATFQQVDISDPSRLAMFQHVTDFLKSYNETGKGKGLYLYGKFGVGKTFMLAAIANELAEKEYSSMIVYVPEFVRELKNSLQDQTLEEKLNMVKTTPVLMLDDIGAESMTSWVRDEVIGTVLQHRMSQQLPTFFSSNFSPDELKHHFTYSQRGEKEEVKAARLMERILYLAAPIRLDGENRRHP

The target in test [1] is T1, DnaEBs DNA polymerase (Bacillus subtilis DnaE) (Bacillus subtilis, UniProt O34623 1-1115).
T1 sequence (looked up): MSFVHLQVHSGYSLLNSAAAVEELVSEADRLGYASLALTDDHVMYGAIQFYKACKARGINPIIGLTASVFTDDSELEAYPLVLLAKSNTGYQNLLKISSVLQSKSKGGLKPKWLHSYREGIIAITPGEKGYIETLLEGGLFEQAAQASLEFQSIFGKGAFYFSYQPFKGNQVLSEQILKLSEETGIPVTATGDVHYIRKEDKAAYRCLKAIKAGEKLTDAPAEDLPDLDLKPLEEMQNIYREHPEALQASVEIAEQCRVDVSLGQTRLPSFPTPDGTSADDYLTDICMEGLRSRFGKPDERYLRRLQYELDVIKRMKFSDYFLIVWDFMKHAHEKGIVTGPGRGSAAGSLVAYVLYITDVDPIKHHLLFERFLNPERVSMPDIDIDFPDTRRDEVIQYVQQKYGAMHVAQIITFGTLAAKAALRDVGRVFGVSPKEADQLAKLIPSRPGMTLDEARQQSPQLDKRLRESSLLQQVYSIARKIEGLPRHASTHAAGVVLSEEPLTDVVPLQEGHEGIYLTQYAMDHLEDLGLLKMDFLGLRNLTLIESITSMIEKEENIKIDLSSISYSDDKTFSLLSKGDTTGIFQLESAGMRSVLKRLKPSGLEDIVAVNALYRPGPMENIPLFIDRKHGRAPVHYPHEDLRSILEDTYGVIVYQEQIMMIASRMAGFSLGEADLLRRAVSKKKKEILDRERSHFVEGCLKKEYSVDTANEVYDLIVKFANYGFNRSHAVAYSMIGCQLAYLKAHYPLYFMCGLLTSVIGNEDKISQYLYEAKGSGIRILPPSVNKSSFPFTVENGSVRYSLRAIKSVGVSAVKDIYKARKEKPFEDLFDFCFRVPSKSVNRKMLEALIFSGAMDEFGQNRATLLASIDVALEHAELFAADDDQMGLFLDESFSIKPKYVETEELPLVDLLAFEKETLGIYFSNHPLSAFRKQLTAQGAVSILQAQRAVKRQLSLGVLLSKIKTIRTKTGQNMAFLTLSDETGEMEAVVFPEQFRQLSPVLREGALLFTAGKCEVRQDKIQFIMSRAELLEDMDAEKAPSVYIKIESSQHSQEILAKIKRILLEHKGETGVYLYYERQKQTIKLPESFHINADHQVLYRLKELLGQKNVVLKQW
The experiment in a line: SEC.

Test [2] concerns the target T1, DnaEBs DNA polymerase (Bacillus …). As to the kind of experiment: SPR. In general terms: SPR reads the build-up and loss of mass on a sensor chip optically.
For test [3], the target named is B1. As to the kind of experiment: SPR.

B1: the binding result in test [1] is recorded as “binds”.

B2: DnaG primase (Bacillus subtilis) (enzyme, UniProt P05096 1-603, looked up)
chain: MGNRIPDEIVDQVQKSADIVEVIGDYVQLKKQGRNYFGLCPFHGESTPSFSVSPDKQIFHCFGCGAGGNVFSFLRQMEGYSFAESVSHLADKYQIDFPDDITVHSGARPESSGEQKMAEAHELLKKFYHHLLINTKEGQEALDYLLSRGFTKELINEFQIGYALDSWDFITKFLVKRGFSEAQMEKAGLLIRREDGSGYFDRFRNRVMFPIHDHHGAVVAFSGRALGSQQPKYMNSPETPLFHKSKLLYNFYKARLHIRKQERAVLFEGFADVISAVSSDVKESIATMGTSLTDDHVKILRRNVEEIILCYDSDKAGYEATLKASELLQKKGCKVRVAMIPDGLDPDDYIKKFGGEKFKNDIIDASVTVMAFKMQYFRKGKNLSDEGDRLAYIKDVLKEISTLSGSLEQEVYVKQLASEFSLSQESLTEQLSVFSKQNKPADNSGETKTRRAHLTTKARQKRLRPAYENAERLLLAHMLRDRSVIKKVIDRVGFQFNIDEHRALAAYLYAFYEEGAELTPQHLMARVTDDHISQLLSDILMLQVNQELSEAELSDYVKKVLNQRNWSMIKEKEAERAEAERQKDFLRAASLAQEIVTLNRSLK
As a reminder, the Kd is the concentration at which binding is half-saturated. Read a high Kd as a looser complex. A word on the koff: it is a measure of how fast the partners let go of each other. Read a high koff as a short-lived complex. As a reminder, the kon is the second-order rate constant of association. A low value points to slow association. In test [2], B2 displayed a Ka of 1.33e+08 M⁻¹, a Kd of 752 nM, an off-rate (koff) of 0.00181 s⁻¹ and an on-rate constant (kon) of 2400 M⁻¹ s⁻¹. In test [3], this molecule returned a Ka of 3.77e+06 M⁻¹, a Kd of 295 nM, a koff of 0.000287 s⁻¹ and a kon of 1080 M⁻¹ s⁻¹.
